Measurements taken from EP4755920A1.

B1: IL4R-CHI-14 (antibody, V domains shown)
VH: EVMLVESGGGLVKPGGSLKLSCAASGFTFSSYAMSWVRQTPEKRLEWVAIISGGGDSTYYPDSVKGRFTISRDNAKNTLYLQMSSLRSEDTALYFCARLHYWYFDFWGTGTTVTVSS
VL: DIQMTQSSSSFSVSLGDRVTITCKASEDLYNRLAWYQQKPGNAPRLLISGATSLETGVPSRFSGSGSGRDYTLIITSLQTEDVATYYCQQYWRNPYTFGGGTKLEIK
B2: IL4R-CHI-07 (antibody, V domains shown)
VH: QVQLQQSGAELVKPGASVKLSCKASGYTFTEYTIHWVKQRSGQGLEWIGWFYPGRGSIKYNEKFKDKATLTADKSSSTVYMELSRLTSEDSAVYFCTRHEYRGSNYAMDYWGQGTSVTVSS
VL: DVLMTQTPLSLPVSLGDQASISCRSSQSIVHSSGNTYLQWYLQKPGQSPKLLIYKVSNRFSGVPDRFSGSGSGTDFTLKISRVEAEDLGVYYCFQGSHVPPTFGGGTKLEIK
B3: IL4R-CHI-04 (antibody, V domains shown)
VH: DVQLQESGPGLVKPSQSLSLTCTVTGYSITSDYAWNWIRQFPGNKLEWMGYISYSGSSSYNPSLKSRISITRDTSKNQFFLQLNSVTTDDTATYYCAGGGLRRRGLFDYWGQGTTLTVSS
VL: QIVLSQSPAILSASPGEKVTMTCRATSSVTYMHWYQQKPGSSPKPWIYATSNLASGVPARFSGSGSGTSYSLTISRVEAEDTATYYCQQWSSIPLTFGAGTKLELK
B4: IL4R-CHI-17 (antibody, V domains shown)
VH: QAYLQQSGAELVRPGASVKMSCKASGYTFTSYNMHWAKQTPRQGLEWIGSIYPGNGDTSYNQKFKGKATLTVDKSSSTAYMQLSSLTSEDSAVYFCARGGRLRRGDWFAYWGQGTLVTVSA
VL: DIQMTQSPASLSASVGETVTITCRASENIYSYLIWYQQKQGKSPQLLVYDAKTLAEGVPSRFSGSGSGSQFSLKINSLQPEDFGTYYCQHHYGTPLTFGGGTKLELK
B5: IL4R-CHI-13 (antibody, V domains shown)
VH: EVQLQQSGPVLVKPGASVKMSCKASGYTFTDYYMNWVKQRHGKSLDWIGTINPYNGGTGYNQKFKGKATLTVDKSSSTAYMELNSLTSEDSAVYFCARSLLRRRGAMDYWGQGTSVTVSS
VL: DIVLTQSPASLVVSLGQRATISCRASKSVSTSGYGYIHWYRQKPGQPPKLLIYLVSNLESGVPARFSGSGSGTDFTLNIHPVEEEDAATYYCQHIRELYTFGGGTKLEIK

Target: Full-length cynoIL4Rα on monkey IL4Rα-FlpinCHO cells (cynomolgus monkey)
Experiment: flow cytometry on monkey IL4Rα-FlpinCHO cells

Full-length cynoIL4Rα on monkey IL4Rα-FlpinCHO cells (cynomolgus monkey), sequence (A0A2K5 entry or part of it limits assumed): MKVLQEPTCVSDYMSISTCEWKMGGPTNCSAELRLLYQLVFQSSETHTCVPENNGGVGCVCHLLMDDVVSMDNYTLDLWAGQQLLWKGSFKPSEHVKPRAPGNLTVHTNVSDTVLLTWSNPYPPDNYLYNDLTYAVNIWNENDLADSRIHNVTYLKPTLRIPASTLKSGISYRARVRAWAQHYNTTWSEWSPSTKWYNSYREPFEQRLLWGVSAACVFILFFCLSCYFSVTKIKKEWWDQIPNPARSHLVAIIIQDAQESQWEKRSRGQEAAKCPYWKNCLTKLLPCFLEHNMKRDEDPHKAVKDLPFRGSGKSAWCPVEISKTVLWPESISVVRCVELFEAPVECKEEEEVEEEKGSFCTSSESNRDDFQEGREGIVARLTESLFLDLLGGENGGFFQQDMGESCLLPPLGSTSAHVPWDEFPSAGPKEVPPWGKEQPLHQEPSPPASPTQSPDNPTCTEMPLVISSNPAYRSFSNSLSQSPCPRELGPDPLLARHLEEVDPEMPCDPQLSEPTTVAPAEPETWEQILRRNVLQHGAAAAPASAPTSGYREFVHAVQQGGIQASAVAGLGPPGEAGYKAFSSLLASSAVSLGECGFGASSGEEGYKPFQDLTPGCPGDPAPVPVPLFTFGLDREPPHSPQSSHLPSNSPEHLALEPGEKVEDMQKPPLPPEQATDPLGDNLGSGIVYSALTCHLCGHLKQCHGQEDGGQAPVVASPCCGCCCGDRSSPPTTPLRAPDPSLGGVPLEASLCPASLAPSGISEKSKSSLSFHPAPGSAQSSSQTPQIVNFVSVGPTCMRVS

Binder | Emax
B1 | 97
B2 | 58
B3 | 82
B4 | 68
B5 | 74
